IntAct's records for PubMed 31515488

B1: RING finger protein 11 (Homo sapiens), Q9Y3C5 (parent)
chain: MGNCLKSPTSDDISLLHESQSDRASFGEGTEPDQEPPPPYQEQVPVPVYHPTPSQTRLATQLTEEEQIRIAQRIGLIQHLPKGVYDPGRDGSEKKIRECVICMMDFVYGDPIRFLPCMHIYHLDCIDDWLMRSFTCPSCMEPVDAALLSSYETN
B2: Transmembrane protein 79 (Homo sapiens), Q9BSE2 (parent)
chain: MTEQETLALLEVKRSDSPEKSSPQALVPNGRQPEGEGGAESPGAESLRVGSSAGSPTAIEGAEDGLDSTVSEAATLPWGTGPQPSAPFPDPPGWRDIEPEPPESEPLTKLEELPEDDANLLPEKAARAFVPIDLQCIERQPQEDLIVRCEAGEGECRTFMPPRVTHPDPTERKWAEAVVRPPGCSCGGCGSCGDREWLRAVASVGAALILFPCLLYGAYAFLPFDVPRLPTMSSRLIYTLRCGVFATFPIVLGILVYGLSLLCFSALRPFGEPRREVEIHRRYVAQSVQLFILYFFNLAVLSTYLPQDTLKLLPLLTGLFAVSRLIYWLTFAVGRSFRGFGYGLTFLPLLSMLMWNLYYMFVVEPERMLTATESRLDYPDHARSASDYRPRPWG
B3: Coiled-coil domain-containing protein 172 (Homo sapiens), P0C7W6 (parent)
chain: MSLESLFQHIIFTEHQAEESRRLMREVRSEITRCREKIKKATEELNEEKIKLESKVQQFFEKSFFLQLLKAHENALEKQYSEITNHRNMLLQTFEAIKKQMIEEEDKFIKEITDFNNDYEITKKRELLMKENVKIEISDLENQANMLKSEMKSMEHDSSQLNELQKQKSELIQELFTLQRKLKVFEDEENESICTTKYLEAEKIKISEKPQNDTECLRLKKELELYKEDDMESVYEALQTEIEFLELTLAQKDLQESK
B4: Dendritic cell nuclear protein 1 (Homo sapiens), Q8TF63 (parent)
chain: MHYGAATHIQNSRSHGLETVPGHQRLERGAGGETPEFPGCHSPAPPENFGNELLPLSAPLQGLSEGLYPPGRNKTLPAGVLREGAVQFLHRGLCNSNLSSEASARPSGTQDELHSSRRKTGQTRREGARKHLVCSFRLYPFTVHTVSPGNSHLALYQVFKAVKLCPSETSFFLSRKSLKSSDPWHPPSLSPNSWNRQAGFRAWSSHLISLSLTCSDSQSRRVSSSQQPPLHSLSSHRRAAHVPE

Variants of: B1
Conditions: with ub2d4_human UBE2D4, Q9Y2X8
ub2d4_human UBE2D4, Q9Y2X8, sequence (Q9Y2X8 whole entry): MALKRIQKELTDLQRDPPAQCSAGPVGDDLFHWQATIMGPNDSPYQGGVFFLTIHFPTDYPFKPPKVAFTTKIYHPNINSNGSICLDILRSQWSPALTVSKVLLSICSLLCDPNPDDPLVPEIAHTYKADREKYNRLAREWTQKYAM

Variant	effect of a mutation on the interaction
R97W	with no effect

Variants of: B2
Conditions: with tnmd_human TNMD

Variant	effect of a mutation on the interaction
V322I	with no effect

Variants of: B2
Conditions: with pspc_human SFTPC

Variant	effect of a mutation on the interaction
V147M	with no effect
D144G	with no effect
S104T	with no effect

Variants of: B2
Conditions: with sarco_human SLN

Variant	effect of a mutation on the interaction
V147M	with no effect
D144G	with no effect
S104T	with no effect

Variants of: B2
Conditions: with sc22a_human SEC22A

Variant	effect of a mutation on the interaction
V147M	with no effect
D144G	with no effect
S104T	with no effect

Variants of: B2
Conditions: with tx264_human TEX264, Q9Y6I9
tx264_human TEX264, Q9Y6I9, sequence (Q9Y6I9 whole entry): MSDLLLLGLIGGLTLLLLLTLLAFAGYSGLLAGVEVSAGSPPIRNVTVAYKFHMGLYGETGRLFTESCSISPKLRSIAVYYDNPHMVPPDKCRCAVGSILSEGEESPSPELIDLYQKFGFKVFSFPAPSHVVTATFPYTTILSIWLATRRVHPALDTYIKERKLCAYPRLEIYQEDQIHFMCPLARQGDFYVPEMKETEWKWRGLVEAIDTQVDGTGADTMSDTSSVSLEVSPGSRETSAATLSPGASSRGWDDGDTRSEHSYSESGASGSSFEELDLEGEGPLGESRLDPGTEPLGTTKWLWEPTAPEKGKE

Variant	effect of a mutation on the interaction
V147M	with no effect
D144G	with no effect
S104T	with no effect

Variants of: B3
Conditions: with mesh1_human HDDC3, Q8N4P3
mesh1_human HDDC3, Q8N4P3, sequence (Q8N4P3 whole entry): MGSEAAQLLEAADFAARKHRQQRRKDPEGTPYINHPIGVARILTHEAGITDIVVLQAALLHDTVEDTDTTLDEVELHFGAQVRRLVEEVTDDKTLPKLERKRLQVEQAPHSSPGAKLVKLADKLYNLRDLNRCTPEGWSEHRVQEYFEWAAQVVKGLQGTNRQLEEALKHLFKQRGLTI

Variant	effect of a mutation on the interaction
N145K	with no effect
I10V	with no effect

Variants of: B3
Conditions: with fa13c_human FAM13C

Variant	effect of a mutation on the interaction
F60L	disrupting interaction strength
I10V	with no effect

Variants of: B3
Conditions: with dctn2_human DCTN2, Q13561
dctn2_human DCTN2, Q13561, sequence (Q13561 whole entry): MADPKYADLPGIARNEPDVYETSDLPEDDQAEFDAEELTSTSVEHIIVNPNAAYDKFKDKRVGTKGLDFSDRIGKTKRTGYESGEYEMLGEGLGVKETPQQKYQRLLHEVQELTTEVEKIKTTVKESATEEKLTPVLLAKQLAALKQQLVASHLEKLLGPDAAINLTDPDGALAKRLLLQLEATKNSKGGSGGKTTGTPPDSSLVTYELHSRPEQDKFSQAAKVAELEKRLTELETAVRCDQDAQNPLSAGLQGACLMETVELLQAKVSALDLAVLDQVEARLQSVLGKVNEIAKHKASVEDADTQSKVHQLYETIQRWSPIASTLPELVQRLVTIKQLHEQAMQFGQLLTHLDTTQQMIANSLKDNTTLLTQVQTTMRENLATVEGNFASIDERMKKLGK

Variant	effect of a mutation on the interaction
F60L	disrupting interaction strength
I10V	with no effect

Variants of: B3
Conditions: with smce1_human SMARCE1, Q969G3
smce1_human SMARCE1, Q969G3, sequence (Q969G3 whole entry): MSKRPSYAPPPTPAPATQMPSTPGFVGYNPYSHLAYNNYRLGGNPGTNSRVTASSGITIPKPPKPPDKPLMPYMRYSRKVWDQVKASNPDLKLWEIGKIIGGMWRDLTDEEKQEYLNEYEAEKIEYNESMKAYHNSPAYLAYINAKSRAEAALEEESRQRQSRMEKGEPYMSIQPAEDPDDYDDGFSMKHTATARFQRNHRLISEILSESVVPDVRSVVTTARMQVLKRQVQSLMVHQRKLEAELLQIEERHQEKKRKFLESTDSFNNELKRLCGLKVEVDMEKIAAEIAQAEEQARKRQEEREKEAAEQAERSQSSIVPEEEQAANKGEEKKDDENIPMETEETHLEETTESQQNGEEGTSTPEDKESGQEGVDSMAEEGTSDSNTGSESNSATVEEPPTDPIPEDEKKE

Variant	effect of a mutation on the interaction
F60L	disrupting interaction strength
I10V	with no effect

Variants of: B4
Conditions: with mdfi_human MDFI

Variant	effect of a mutation on the interaction
P183T	with no effect
